# According to PMC9769622, “ATPase Activity of Bacillus subtilis RecA Affects the Dynamic Formation of RecA Filaments at DNA Double Strand Breaks” (mSphere, 2022):
# How the values were obtained:
# RecA (RecAWT) = biological target: T1, RecA (RecAWT) (Bacillus subtilis, UniProt P16971); assay: malachite green phosphate release; kinetic analysis of ATP binding; assay type: biochemical; conditions: with salmon sperm ssDNA, Mg2+, pH 7.4, 37 C
# T1 construct: 6xHis tag kept (text says C-terminal, also written 6xHis-RecA); pET28a, E. coli BL21(DE3); about 38 kDa monomer
# T1 sequence (P16971 11-348): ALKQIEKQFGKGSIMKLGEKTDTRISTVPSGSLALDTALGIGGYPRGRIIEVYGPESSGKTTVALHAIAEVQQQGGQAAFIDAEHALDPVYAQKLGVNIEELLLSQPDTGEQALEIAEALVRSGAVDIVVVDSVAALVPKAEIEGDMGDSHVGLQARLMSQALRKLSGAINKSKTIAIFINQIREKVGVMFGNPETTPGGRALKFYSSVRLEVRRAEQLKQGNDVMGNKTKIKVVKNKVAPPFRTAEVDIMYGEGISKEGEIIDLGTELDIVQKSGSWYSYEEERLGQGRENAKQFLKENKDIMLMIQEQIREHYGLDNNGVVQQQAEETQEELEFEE
# [1] = biological target: Bacillus subtilis RecA K70A Walker A mutant, hexa-histidine fusion protein (B. subtilis) (UniProt P16971); assay: mass photometry; protein alone; 2 uL sample added to 18 uL PBS pH 7.4, room temperature; 137 mM salt; poly-L-lysine coated coverslips
# [2] = biological target: Bacillus subtilis RecA K70R Walker A mutant, hexa-histidine fusion protein (B. subtilis) (UniProt P16971); assay: as above
# [3] = biological target: Bacillus subtilis RecA K70R Walker A mutant, hexa-histidine fusion protein (B. subtilis) (UniProt P16971); assay: mass photometry; protein mixed with 32 nt ssDNA oligonucleotides and 1 mmol/l ATP, incubated 10 min at 37°C; measured in PBS pH 7.4
# [4] = biological target: Bacillus subtilis RecA, wild type, hexa-histidine fusion protein (B. subtilis) (UniProt P16971); assay: mass photometry; protein alone; 2 uL sample added to 18 uL PBS pH 7.4, room temperature; 137 mM salt; poly-L-lysine coated coverslips
molecule,measurement,setting,value
Nc1ncnc2c1ncn2[C@@H]1O[C@H](COP(=O)(O)OP(=O)(O)OP(=O)(O)O)[C@@H](O)[C@H]1O [ATP],malachite green phosphate release; kinetic analysis of ATP binding,RecA (RecAWT),activity of wild type RecA comparable to that of E. coli RecA
"Bacillus subtilis RecA K70A Walker A mutant, hexa-histidine fusion protein (from UniProt P16971 11-348) (natural protein)",stoichiometry N,[1],2
"Bacillus subtilis RecA K70R Walker A mutant, hexa-histidine fusion protein (from UniProt P16971 11-348) (natural protein)",stoichiometry N,[2],2
same,stoichiometry N,[3],2
"Bacillus subtilis RecA, wild type, hexa-histidine fusion protein (from UniProt P16971 11-348) (natural protein)",stoichiometry N,[4],2
